This note sets out measurements from paper PMC9694023.

What is called stoichiometry N is the number of molecules, sites or subunits per partner or assembly.

In this assay the target is T1, endogenous IRF7 of HEK293 cells (human (endogenous in HEK293)), Q92985.
T1 chain: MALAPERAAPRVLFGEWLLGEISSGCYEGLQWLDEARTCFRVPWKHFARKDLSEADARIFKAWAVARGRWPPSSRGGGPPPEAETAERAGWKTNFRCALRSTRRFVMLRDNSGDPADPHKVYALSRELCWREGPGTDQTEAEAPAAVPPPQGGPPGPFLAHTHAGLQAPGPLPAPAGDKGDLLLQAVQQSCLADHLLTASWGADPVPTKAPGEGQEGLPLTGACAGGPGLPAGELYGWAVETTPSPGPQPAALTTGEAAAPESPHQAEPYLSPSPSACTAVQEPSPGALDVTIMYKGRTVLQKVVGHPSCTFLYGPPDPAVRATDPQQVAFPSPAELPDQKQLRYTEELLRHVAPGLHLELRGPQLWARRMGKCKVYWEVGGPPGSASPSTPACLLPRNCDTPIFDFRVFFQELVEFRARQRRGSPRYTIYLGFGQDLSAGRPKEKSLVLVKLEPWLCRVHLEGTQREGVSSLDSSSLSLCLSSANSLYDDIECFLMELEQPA
Kind of assay: native gel or EMSA. The conditions noted are these: remark: other sources report otherwise. For orientation: A gel shift assay detects complexes by their altered migration in electrophoresis.

B1: endogenous IRF7 of HEK293 cells, Q92985 1-503 (natural protein)
chain: T1 chain
On to B1, for which the stoichiometry N came to 2.
